Here are results for two molecules from article PMC8428117, “Y chromosomal noncoding RNAs regulate autosomal gene expression via piRNAs in mouse testis”.

The series concerns the target MIWI (mouse homologue of PIWI) (UniProt Q9JMB7 1-862). Kind of series: EMSA; shift abolished by MIWI antibody, not by Argonaute 3 antibody; competed by cold piR1; 20 mM HEPES (pH not stated), 3 mM MgCl2, 40 mM KCl, 5% glycerol, 2 mM DTT, 4 U RNase inhibitor; 5 ug MIWI in 25 ul; on ice, 30 min with probe (competitor/antibody 1 h before); 5% native PAGE. The following applies: protein: recombinant; tags: FLAG; label: 32P end label. In general terms: A gel shift assay detects complexes by their altered migration in electrophoresis.

Sequence of MIWI (mouse homologue of PIWI) (Q9JMB7 whole entry): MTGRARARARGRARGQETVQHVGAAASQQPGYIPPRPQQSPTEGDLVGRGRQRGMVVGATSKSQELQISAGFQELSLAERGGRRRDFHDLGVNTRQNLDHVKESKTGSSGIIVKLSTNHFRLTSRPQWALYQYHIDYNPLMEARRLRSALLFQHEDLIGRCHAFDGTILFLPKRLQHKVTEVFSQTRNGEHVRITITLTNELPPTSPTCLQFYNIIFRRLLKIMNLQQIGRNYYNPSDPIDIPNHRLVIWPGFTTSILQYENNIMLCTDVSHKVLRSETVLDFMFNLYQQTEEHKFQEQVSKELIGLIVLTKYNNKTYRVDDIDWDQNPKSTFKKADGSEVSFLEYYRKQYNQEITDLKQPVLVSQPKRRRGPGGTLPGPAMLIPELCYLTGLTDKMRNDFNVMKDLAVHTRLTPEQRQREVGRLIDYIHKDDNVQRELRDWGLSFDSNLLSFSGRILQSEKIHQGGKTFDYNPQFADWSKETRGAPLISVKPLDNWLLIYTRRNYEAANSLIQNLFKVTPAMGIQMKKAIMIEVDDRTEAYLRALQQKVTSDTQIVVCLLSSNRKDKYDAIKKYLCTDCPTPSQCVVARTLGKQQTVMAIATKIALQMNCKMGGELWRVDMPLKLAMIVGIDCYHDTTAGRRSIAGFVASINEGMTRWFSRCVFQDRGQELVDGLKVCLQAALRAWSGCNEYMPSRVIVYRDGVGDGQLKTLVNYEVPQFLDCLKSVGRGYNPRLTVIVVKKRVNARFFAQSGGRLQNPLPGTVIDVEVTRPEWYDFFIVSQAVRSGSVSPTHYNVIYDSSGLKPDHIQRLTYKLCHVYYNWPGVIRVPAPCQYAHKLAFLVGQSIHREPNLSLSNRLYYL

B1: spot A4 oligo (FJ541077) (ssRNA)
RNA: UCAUUGGACAUAAACUGAAUUUUCCA
For the molecule B1, the binding result is given as “binds”.

B2: Sod oligo (FJ541118) (ssRNA)
RNA: GAAGCAGAUGAGUAUAUG
For the molecule B2, the binding result is reported as “binds”.
